To fix the notation:
B1: Intersectin-2, residues 1129 to 1183; numbered along this chain, Q9NZM3 (parent)
chain: VCQVIAMYDYAANNEDELSFSKGQLINVMNKDDPDWWQGEINGVTGLFPSNYVKM

± gives the uncertainty stated by the source.

The variants in this data set derive from B1. In words: abundance fitness (aPCA) (normalised: wild type 0, dead -1); higher = more abundant; growth selection in yeast, the domain comes from the species named. The settings on record: Homo sapiens.
On to VCQVIAMYDYAANNEDELSFGKGQLINVMNKDDPDWWQGEINGVTGLFPSNYVKM, for which the abundance fitness is -0.039 ± 0.031.
For VCQVIAMYDYAANNEDELSFEKGQLINVMNKDDPDWWQGEINGVTGLFPSNYVKM, the abundance fitness is -0.084 ± 0.052.
For the variant VCQVIAMYDYAANNEDELSFLKGQLINVMNKDDPDWWQGEINGVTGLFPSNYVKM, the abundance fitness is -0.037 ± 0.034.
In the case of VCQVIAMYDYAANNEDELSISKGQLINVMNKDDPDWWQGEINGVTGLFPSNYVKM, the abundance fitness is -0.163 ± 0.061.
Next, VCQVIAMYDYAANNEDELSPSKGQLINVMNKDDPDWWQGEINGVTGLFPSNYVKM: -0.919 ± 0.11; VCQVIAMYDYAANNEDELSYSKGQLINVMNKDDPDWWQGEINGVTGLFPSNYVKM: -0.497 ± 0.062.
For the variant VCQVIAMYDYAANNEDELSVSKGQLINVMNKDDPDWWQGEINGVTGLFPSNYVKM, the abundance fitness is -0.357 ± 0.029.
As for VCQVIAMYDYAANNEDELSKSKGQLINVMNKDDPDWWQGEINGVTGLFPSNYVKM, the abundance fitness was -0.921 ± 0.072.
With VCQVIAMYDYAANNEDELSTSKGQLINVMNKDDPDWWQGEINGVTGLFPSNYVKM, the abundance fitness was -0.88 ± 0.054.
Take VCQVIAMYDYAANNEDELSQSKGQLINVMNKDDPDWWQGEINGVTGLFPSNYVKM: the abundance fitness is -0.844 ± 0.09.
The same measure for VCQVIAMYDYAANNEDELSRSKGQLINVMNKDDPDWWQGEINGVTGLFPSNYVKM: -0.98 ± 0.078; for VCQVIAMYDYAANNEDELSMSKGQLINVMNKDDPDWWQGEINGVTGLFPSNYVKM: -0.26 ± 0.051.
Regarding VCQVIAMYDYAANNEDELSSSKGQLINVMNKDDPDWWQGEINGVTGLFPSNYVKM, the abundance fitness is -0.871 ± 0.04.
In the case of VCQVIAMYDYAANNEDELSLSKGQLINVMNKDDPDWWQGEINGVTGLFPSNYVKM, the abundance fitness was -0.079 ± 0.036.
For the variant VCQVIAMYDYAANNEDELSFSKGNLINVMNKDDPDWWQGEINGVTGLFPSNYVKM, the abundance fitness is -0.05 ± 0.04.
Next, VCQVIAMYDYAANNEDELSFSKGHLINVMNKDDPDWWQGEINGVTGLFPSNYVKM: -0.154 ± 0.043.
VCQVIAMYDYAANNEDELSFSKGMLINVMNKDDPDWWQGEINGVTGLFPSNYVKM: the abundance fitness is -0.051 ± 0.033.
VCQVIAMYDYAANNEDELSFSKGSLINVMNKDDPDWWQGEINGVTGLFPSNYVKM: the abundance fitness is -0.073 ± 0.045.
As for VCQVIAMYDYAANNEDELSFSKGLLINVMNKDDPDWWQGEINGVTGLFPSNYVKM, the abundance fitness is -0.199 ± 0.037.
Next, VCQVIAMYDYAANNEDELSFSKGGLINVMNKDDPDWWQGEINGVTGLFPSNYVKM: -0.073 ± 0.037; VCQVIAMYDYAANNEDELSFSKGRLINVMNKDDPDWWQGEINGVTGLFPSNYVKM: -0.128 ± 0.045; VCQVIAMYDYAANNEDELSFSKGVLINVMNKDDPDWWQGEINGVTGLFPSNYVKM: -0.078 ± 0.034.
Next, VCQVIAMYDYAANNEDELSFSKGCLINVMNKDDPDWWQGEINGVTGLFPSNYVKM: -0.151 ± 0.053; VCQVIAMYDYAANNEDELSFSKGKLINVMNKDDPDWWQGEINGVTGLFPSNYVKM: -0.118 ± 0.045; VCQVIAMYDYAANNEDELSFSKGDLINVMNKDDPDWWQGEINGVTGLFPSNYVKM: 0.022 ± 0.06.
Consider VCQVIAMYDYAANNEDELSFSKGYLINVMNKDDPDWWQGEINGVTGLFPSNYVKM, for which the abundance fitness is -0.153 ± 0.051.
For VCQVIAMYDYAANNEDELSFSKGFLINVMNKDDPDWWQGEINGVTGLFPSNYVKM, the abundance fitness was -0.015 ± 0.066.
With VCQVIAMYDYAANNEDELSFSKGELINVMNKDDPDWWQGEINGVTGLFPSNYVKM, the abundance fitness was -0.007 ± 0.039.
Next, VCQVIAMYDYAANNEDELSFSKGWLINVMNKDDPDWWQGEINGVTGLFPSNYVKM: -0.038 ± 0.052; VCQVIAMYDYAANNEDELSFSAGQLINVMNKDDPDWWQGEINGVTGLFPSNYVKM: -0.027 ± 0.036.
Next, VCQVIAMYDYAANNEDELSFSQGQLINVMNKDDPDWWQGEINGVTGLFPSNYVKM: 0.033 ± 0.047; VCQVIAMYDYAANNEDELSFSCGQLINVMNKDDPDWWQGEINGVTGLFPSNYVKM: -0.061 ± 0.052; VCQVIAMYDYAANNEDELSFSMGQLINVMNKDDPDWWQGEINGVTGLFPSNYVKM: -0.118 ± 0.032.
Turning to VCQVIAMYDYAANNEDELSFSSGQLINVMNKDDPDWWQGEINGVTGLFPSNYVKM, the abundance fitness is -0.084 ± 0.041.
Regarding VCQVIAMYDYAANNEDELSFSFGQLINVMNKDDPDWWQGEINGVTGLFPSNYVKM, the abundance fitness is -0.164 ± 0.036.
As to VCQVIAMYDYAANNEDELSFSWGQLINVMNKDDPDWWQGEINGVTGLFPSNYVKM, the abundance fitness was -0.362 ± 0.052.
For the variant VCQVIAMYDYAANNEDELSFSEGQLINVMNKDDPDWWQGEINGVTGLFPSNYVKM, the abundance fitness was -0.036 ± 0.055.
The same measure for VCQVIAMYDYAANNEDELSFSLGQLINVMNKDDPDWWQGEINGVTGLFPSNYVKM: -0.146 ± 0.035; for VCQVIAMYDYAANNEDELSFSTGQLINVMNKDDPDWWQGEINGVTGLFPSNYVKM: -0.064 ± 0.051; for VCQVIAMYDYAANNEDELSFSIGQLINVMNKDDPDWWQGEINGVTGLFPSNYVKM: -0.063 ± 0.04.
Take VCQVIAMYDYAANNEDELSFSDGQLINVMNKDDPDWWQGEINGVTGLFPSNYVKM: the abundance fitness was -0.22 ± 0.052.
The same measure for VCQVIAMYDYAANNEDELSFSPGQLINVMNKDDPDWWQGEINGVTGLFPSNYVKM: -0.154 ± 0.043; for VCQVIAMYDYAANNEDELSFSGGQLINVMNKDDPDWWQGEINGVTGLFPSNYVKM: -0.097 ± 0.039; for VCQVIAMYDYAANNEDELSFSRGQLINVMNKDDPDWWQGEINGVTGLFPSNYVKM: -0.121 ± 0.028.
On to VCQVIAMYDYAANNEDELSFSVGQLINVMNKDDPDWWQGEINGVTGLFPSNYVKM, for which the abundance fitness is -0.074 ± 0.041.
For VCQVIAMYDYAANNEDELSFSNGQLINVMNKDDPDWWQGEINGVTGLFPSNYVKM, the abundance fitness was -0.025 ± 0.063.
On to VCQVIAMYDYAANNEDELSFSHGQLINVMNKDDPDWWQGEINGVTGLFPSNYVKM, for which the abundance fitness is -0.146 ± 0.044.
Consider VCQVIAMYDYAANNEDELSFSYGQLINVMNKDDPDWWQGEINGVTGLFPSNYVKM, for which the abundance fitness is -0.172 ± 0.064.

Values taken from the Human Domainome abundance scans (Beltran et al. 2025).
